{
  "source": "paper PMC179894",
  "assay_in_all_cases": "enzyme inhibition kinetics",
  "key": {"thrombin": {"target": "thrombin (UniProt P00734)"}, "[1]": {"target": "single-chain tissue-type plasminogen activator"}, "plasmin": {"target": "plasmin (UniProt P00747)"}},
  "data": [
    {"substance": "wild type plasminogen activator inhibitor-1 (recombinant, baculovirus system) (from UniProt P05121 24-402) (natural protein)", "values": [
      {"measurement": "second-order rate constant of inhibition", "setting": "thrombin", "value": 720, "unit": "M⁻¹ s⁻¹"},
      {"measurement": "second-order rate constant of inhibition", "setting": "[1]", "value": "2.11e+07", "unit": "M⁻¹ s⁻¹"},
      {"measurement": "second-order rate constant of inhibition", "setting": "plasmin", "value": 31000, "unit": "M⁻¹ s⁻¹"}
    ]}
  ]
}
